The values that follow come from paper PMC12668182.

The subject of series [1] is HaloTag-CSB full-length (nuclear extract, SMADNE);HaloTag-SNM1A catalytic domain. In words: single-molecule (optical tweezers C-Trap). Conditions: EMSA: 20 mM HEPES-KOH pH 7.5, 50 mM KCl, 0.05% Triton X-100, 0.5 mM TCEP, 5% glycerol, 1 nM oligo, 4 C, C-Trap: 20 mM HEPES pH 7.5, 10% glycerol, 1 mM DTT. A general note: A gel shift assay detects complexes by their altered migration in electrophoresis.

Series [2] relates to HaloTag-SNM1A catalytic domain. Nature of the series: single-molecule (optical tweezers C-Trap). Particulars: EMSA: 20 mM HEPES-KOH pH 7.5, 50 mM KCl, 0.05% Triton X-100, 0.5 mM TCEP, 5% glycerol, 1 nM oligo, 4 C, C-Trap: 20 mM HEPES pH 7.5, 10% glycerol, 1 mM DTT.
Series [3] relates to HaloTag-CSB full-length (nuclear extract, SMADNE). In words: single-molecule (SMADNE, optical tweezers C-Trap). Conditions: EMSA: 20 mM HEPES-KOH pH 7.5, 50 mM KCl, 0.05% Triton X-100, 0.5 mM TCEP, 5% glycerol, 1 nM oligo, 4 C, C-Trap: 20 mM HEPES pH 7.5, 10% glycerol, 1 mM DTT.
For series [4], the target named is HaloTag-CSB, full length, JaneliaFluor-labelled (human) (UniProt Q03468). Nature of the series: single-molecule fluorescence on tethered DNA (SMADNE, LUMICKS C-Trap); oligomerisation state of HaloTag-CSB (photon counts) in events colocalised with SNM1A on lambda dsDNA; DNA present.
Series [5] has the same target. In words: single-molecule fluorescence on tethered DNA (SMADNE, LUMICKS C-Trap); oligomerisation state of HaloTag-CSB (photon counts) at the site-specific ICL repair intermediate, alone or colocalised with SNM1A; DNA present.
Series [6] shares this target. Nature of the series: single-molecule fluorescence on tethered DNA (SMADNE, LUMICKS C-Trap); two-colour HaloTag-CSB nuclear extracts (JF552 and JF635) on lambda dsDNA; colocalisation and photon counts; 20 mM HEPES pH 7.5, 10% glycerol, 1 mM DTT, 1 mM MgCl2; 30 C; DNA present.
For series [7], the target named is full-length CSB (ERCC6), wild type, recombinant (human) (UniProt Q03468). Nature of the series: SEC; purification of full-length CSB alone on Superdex S200; retention volume compared with calibration curves; 50 mM HEPES pH 8, 300 mM NaCl, 1 mM TCEP; monomer to dimer. For orientation: SEC sorts molecules by how far they enter the pores of the column.
Setting [8] is: triazole click ICL (azide-C6-amino-dA x octadiynyl-dU), 5'P flap.

The Kd is the free concentration of one partner at which half of the binding sites on the other are occupied at equilibrium, for simple one-to-one binding. A high value points to a looser complex. For ICL flap repair intermediate (C-Trap), the results for the Kd in series [1] (setting [8]) and in series [2] (setting [8]) were 45 nM and 355 nM, respectively.
On to lambda DNA (undamaged), for which the Kd in series [3] is 1.2 nM; in series [1], 17.5 nM; in series [2] it was 21.8 nM.
Consider “HaloTag-CSB, full length, JaneliaFluor-labelled (from UniProt Q03468 1-1493) (natural protein)”, for which the percent of CSB:SNM1A colocalisation events on lambda DNA in which CSB was a dimer in series [4] came to 73%. In series [5], this substance yielded a percent of CSB events at the ICL repair intermediate that were dimeric of 78% and a percent of SNM1A:CSB events on ICL repair intermediates with dimeric CSB of 90%. Also, in series [6], the percent of CSB binding events on lambda DNA that were dimeric is 35% and the percent of single colour tracks in which a dimeric CSB bound to DNA is 20%.
By stoichiometry N is commonly meant the number of molecules, sites or subunits per partner or assembly. As for “full-length CSB (ERCC6), wild type, recombinant (from UniProt Q03468 1-1493) (natural protein)”, the stoichiometry N in series [7] was found to be 2.
